Each block holds one binder with its values, some of them ahead of it. No end group written: not given here.
Legend:
[1] = target: full-length ZO1 with C-terminal mEGFP (UniProt Q07157 1-1748); experiment: client partitioning into phase-separated droplets
[2] = target: the molecule itself; experiment: FCS molecular brightness

Sequence of full-length ZO1 with C-terminal mEGFP (Q07157 whole entry): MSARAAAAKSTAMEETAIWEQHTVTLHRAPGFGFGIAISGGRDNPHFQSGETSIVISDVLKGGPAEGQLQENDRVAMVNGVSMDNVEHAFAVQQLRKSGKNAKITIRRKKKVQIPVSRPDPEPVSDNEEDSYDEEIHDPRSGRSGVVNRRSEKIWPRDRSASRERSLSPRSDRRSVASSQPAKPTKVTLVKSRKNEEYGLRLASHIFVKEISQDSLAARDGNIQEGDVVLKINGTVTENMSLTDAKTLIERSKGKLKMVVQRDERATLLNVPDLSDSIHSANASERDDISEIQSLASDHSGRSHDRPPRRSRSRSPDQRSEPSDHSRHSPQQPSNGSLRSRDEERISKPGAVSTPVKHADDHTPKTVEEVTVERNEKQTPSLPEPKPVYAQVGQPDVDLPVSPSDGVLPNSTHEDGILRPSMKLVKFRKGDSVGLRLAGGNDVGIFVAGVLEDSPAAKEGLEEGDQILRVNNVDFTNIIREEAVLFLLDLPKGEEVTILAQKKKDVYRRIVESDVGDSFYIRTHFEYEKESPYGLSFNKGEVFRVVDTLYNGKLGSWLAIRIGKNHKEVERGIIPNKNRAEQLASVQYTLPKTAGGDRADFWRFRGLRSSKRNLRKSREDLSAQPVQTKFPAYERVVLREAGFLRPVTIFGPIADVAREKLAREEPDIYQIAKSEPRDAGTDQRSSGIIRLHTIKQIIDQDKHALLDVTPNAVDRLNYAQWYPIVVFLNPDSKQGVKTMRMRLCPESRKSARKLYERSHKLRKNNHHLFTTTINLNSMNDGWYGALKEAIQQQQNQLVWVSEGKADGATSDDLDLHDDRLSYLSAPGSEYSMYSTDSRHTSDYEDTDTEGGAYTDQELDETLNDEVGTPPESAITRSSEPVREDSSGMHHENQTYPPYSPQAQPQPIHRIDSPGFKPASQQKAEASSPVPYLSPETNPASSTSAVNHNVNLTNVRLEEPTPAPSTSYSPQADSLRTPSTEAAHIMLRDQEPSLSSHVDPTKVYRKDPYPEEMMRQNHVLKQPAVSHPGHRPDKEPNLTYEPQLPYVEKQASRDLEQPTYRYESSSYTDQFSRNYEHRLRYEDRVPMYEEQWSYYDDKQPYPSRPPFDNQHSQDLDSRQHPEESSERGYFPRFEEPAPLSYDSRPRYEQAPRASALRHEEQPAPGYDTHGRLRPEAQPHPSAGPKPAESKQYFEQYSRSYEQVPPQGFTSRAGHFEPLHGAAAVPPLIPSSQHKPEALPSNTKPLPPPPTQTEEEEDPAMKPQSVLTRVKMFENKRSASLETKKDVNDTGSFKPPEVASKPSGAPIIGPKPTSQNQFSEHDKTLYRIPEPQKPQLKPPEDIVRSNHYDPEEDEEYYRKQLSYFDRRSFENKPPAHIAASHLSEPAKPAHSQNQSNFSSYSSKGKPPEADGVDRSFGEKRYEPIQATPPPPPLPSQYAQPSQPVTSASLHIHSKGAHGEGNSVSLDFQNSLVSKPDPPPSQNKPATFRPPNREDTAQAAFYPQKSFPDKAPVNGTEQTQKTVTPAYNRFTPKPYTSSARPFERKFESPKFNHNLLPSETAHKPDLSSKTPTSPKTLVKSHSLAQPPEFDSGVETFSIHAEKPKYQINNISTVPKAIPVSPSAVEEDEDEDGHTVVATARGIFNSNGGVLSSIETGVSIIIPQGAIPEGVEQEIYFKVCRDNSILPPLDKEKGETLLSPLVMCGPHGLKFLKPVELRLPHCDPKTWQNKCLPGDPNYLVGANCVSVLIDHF

partitioning (client fluorescence inside/outside ZO1 droplets) [1]: 25 fold
B1: cingulin (natural protein, UniProt Q9P2M7 1-1203, looked up)
chain: MEQAPNMAEPRGPVDHGVQIRFITEPVSGAEMGTLRRGGRRPAKDARASTYGVAVRVQGIAGQPFVVLNSGEKGGDSFGVQIKGANDQGASGALSSDLELPENPYSQVKGFPAPSQSSTSDEEPGAYWNGKLLRSHSQASLAGPGPVDPSNRSNSMLELAPKVASPGSTIDTAPLSSVDSLINKFDSQLGGQARGRTGRRTRMLPPEQRKRSKSLDSRLPRDTFEERERQSTNHWTSSTKYDNHVGTSKQPAQSQNLSPLSGFSRSRQTQDWVLQSFEEPRRSAQDPTMLQFKSTPDLLRDQQEAAPPGSVDHMKATIYGILREGSSESETSVRRKVSLVLEKMQPLVMVSSGSTKAVAGQGELTRKVEELQRKLDEEVKKRQKLEPSQVGLERQLEEKTEECSRLQELLERRKGEAQQSNKELQNMKRLLDQGEDLRHGLETQVMELQNKLKHVQGPEPAKEVLLKDLLETRELLEEVLEGKQRVEEQLRLRERELTALKGALKEEVASRDQEVEHVRQQYQRDTEQLRRSMQDATQDHAVLEAERQKMSALVRGLQRELEETSEETGHWQSMFQKNKEDLRATKQELLQLRMEKEEMEEELGEKIEVLQRELEQARASAGDTRQVEVLKKELLRTQEELKELQAERQSQEVAGRHRDRELEKQLAVLRVEADRGRELEEQNLQLQKTLQQLRQDCEEASKAKMVAEAEATVLGQRRAAVETTLRETQEENDEFRRRILGLEQQLKETRGLVDGGEAVEARLRDKLQRLEAEKQQLEEALNASQEEEGSLAAAKRALEARLEEAQRGLARLGQEQQTLNRALEEEGKQREVLRRGKAELEEQKRLLDRTVDRLNKELEKIGEDSKQALQQLQAQLEDYKEKARREVADAQRQAKDWASEAEKTSGGLSRLQDEIQRLRQALQASQAERDTARLDKELLAQRLQGLEQEAENKKRSQDDRARQLKGLEEKVSRLETELDEEKNTVELLTDRVNRGRDQVDQLRTELMQERSARQDLECDKISLERQNKDLKTRLASSEGFQKPSASLSQLESQNQLLQERLQAEEREKTVLQSTNRKLERKVKELSIQIEDERQHVNDQKDQLSLRVKALKRQVDEAEEEIERLDGLRKKAQREVEEQHEVNEQLQARIKSLEKDSWRKASRSAAESALKNEGLSSDEEFDSVYDPSSIASLLTESNLQTSSC

partitioning (client fluorescence inside/outside ZO1 droplets) [1]: 20 fold
B3: transcription factor ZONAB (natural protein)
chain: not shown

partitioning (client fluorescence inside/outside ZO1 droplets) [1]: 28 fold
B4: afadin (natural protein, UniProt P55196 1-1824, looked up)
chain: MSAGGRDEERRKLADIIHHWNANRLDLFEISQPTEDLEFHGVMRFYFQDKAAGNFATKCIRVSSTATTQDVIETLAEKFRPDMRMLSSPKYSLYEVHVSGERRLDIDEKPLVVQLNWNKDDREGRFVLKNENDAIPPKKAQSNGPEKQEKEGVIQNFKRTLSKKEKKEKKKREKEALRQASDKDDRPFQGEDVENSRLAAEVYKDMPETSFTRTISNPEVVMKRRRQQKLEKRMQEFRSSDGRPDSGGTLRIYADSLKPNIPYKTILLSTTDPADFAVAEALEKYGLEKENPKDYCIARVMLPPGAQHSDEKGAKEIILDDDECPLQIFREWPSDKGILVFQLKRRPPDHIPKKTKKHLEGKTPKGKERADGSGYGSTLPPEKLPYLVELSPGRRNHFAYYNYHTYEDGSDSRDKPKLYRLQLSVTEVGTEKLDDNSIQLFGPGIQPHHCDLTNMDGVVTVTPRSMDAETYVEGQRISETTMLQSGMKVQFGASHVFKFVDPSQDHALAKRSVDGGLMVKGPRHKPGIVQETTFDLGGDIHSGTALPTSKSTTRLDSDRVSSASSTAERGMVKPMIRVEQQPDYRRQESRTQDASGPELILPASIEFRESSEDSFLSAIINYTNSSTVHFKLSPTYVLYMACRYVLSNQYRPDISPTERTHKVIAVVNKMVSMMEGVIQKQKNIAGALAFWMANASELLNFIKQDRDLSRITLDAQDVLAHLVQMAFKYLVHCLQSELNNYMPAFLDDPEENSLQRPKIDDVLHTLTGAMSLLRRCRVNAALTIQLFSQLFHFINMWLFNRLVTDPDSGLCSHYWGAIIRQQLGHIEAWAEKQGLELAADCHLSRIVQATTLLTMDKYAPDDIPNINSTCFKLNSLQLQALLQNYHCAPDEPFIPTDLIENVVTVAENTADELARSDGREVQLEEDPDLQLPFLLPEDGYSCDVVRNIPNGLQEFLDPLCQRGFCRLIPHTRSPGTWTIYFEGADYESHLLRENTELAQPLRKEPEIITVTLKKQNGMGLSIVAAKGAGQDKLGIYVKSVVKGGAADVDGRLAAGDQLLSVDGRSLVGLSQERAAELMTRTSSVVTLEVAKQGAIYHGLATLLNQPSPMMQRISDRRGSGKPRPKSEGFELYNNSTQNGSPESPQLPWAEYSEPKKLPGDDRLMKNRADHRSSPNVANQPPSPGGKSAYASGTTAKITSVSTGNLCTEEQTPPPRPEAYPIPTQTYTREYFTFPASKSQDRMAPPQNQWPNYEEKPHMHTDSNHSSIAIQRVTRSQEELREDKAYQLERHRIEAAMDRKSDSDMWINQSSSLDSSTSSQEHLNHSSKSVTPASTLTKSGPGRWKTPAAIPATPVAVSQPIRTDLPPPPPPPPVHYAGDFDGMSMDLPLPPPPSANQIGLPSAQVAAAERRKREEHQRWYEKEKARLEEERERKRREQERKLGQMRTQSLNPAPFSPLTAQQMKPEKPSTLQRPQETVIRELQPQQQPRTIERRDLQYITVSKEELSSGDSLSPDPWKRDAKEKLEKQQQMHIVDMLSKEIQELQSKPDRSAEESDRLRKLMLEWQFQKRLQESKQKDEDDEEEEDDDVDTMLIMQRLEAERRARLQDEERRRQQQLEEMRKREAEDRARQEEERRRQEEERTKRDAEEKRRQEEGYYSRLEAERRRQHDEAARRLLEPEAPGLCRPPLPRDYEPPSPSPAPGAPPPPPQRNASYLKTQVLSPDSLFTAKFVAYNEEEEEEDCSLAGPNSYPGSTGAAVGAHDACRDAKEKRSKSQDADSPGSSGAPENLTFKERQRLFSQGQDVSNKVKASRKLTELENELNTK

Further lines, the binder ahead of its results:

B2: endogenous ZO2 with N-terminal mNeonGreen (CRISPR knock-in, MDCK-II) (natural protein, dog (endogenous in MDCK-II), UniProt Q95168 1-1174, looked up)
chain: MEELIWEQYTVTLQKDSKRGFGIAVSGGRDNPHFENGETSIVISDVLPGGPADGLLQENDRVVMVNGTPMEDVLHSFAVQQLRKSGKIAAIVVKRPRKVQLAPPQGSLPVDEDDRAFEVMDEFDGRSARSGYSERSRRSSHGGRSRSWEDSPERGRPHERAWSQERERSRGRSLERGLDHDDDYRRPRERSRGRSLERGLDHDDDYGRPGERSHGMSTDRGYDRGYDRGYDRGYDRTYSPEAEYGRRTQPDARHAGSRSRSREHLRSRSPSPELRGRPDHAGQPDSDRPIGVLLMKSKANEEYGLRLGSQIFIKQMTRTALATKDGNLHEGDIILKINGTVTENMSLTDARKLIEKSRGKLQLVVLRDSKQTLINIPSLNDSDSEIEDISEIESNRSFSPEERRQQYSDYDYHSSNEKLKERPNSREDMQNRWSRMGATPTPFKSMGDIASVVGTENSKEPRYQEEPPAPQPKAAPRTFLRPSPEDEAIYGPNTKMVRFKKGDSVGLRLAGGNDVGIFVAGIQEGTSAEQEGLQEGDQILKVNTQDFRGLVREDAVLYLLEIPKGEMVTILAQSRADVYRDILACGRGDSFFIRSHFECEKETPQSLAFSRGEVFRVVDTLYDGKLGHWLAVRIGNELEKGLIPNKSRAEQMASVQNAQRDNAGDRADFWRMRGQRSGMKKNLRKSREDLTAAVSVSTKFPAYERVLLREAGFKRPVVLFGPIADIALEKLANELPDLFQTAKTEPKDAGSEKSSGVVRLNTVRQIIEQDKHALLDVTPKAVDLLNYTQWFPIVIFFNPDSRQGVKTMRQRLNPTSNKSSRKLYDQANKLKKTCAHLFTATINLNSANDSWFGSLKDTIQHQQGEAVWVSEGKMEGMDDDPEDRMSYLTAMGADYLSCDSRLISDFEDTDGEGGAYTDNELDEPAEEPLVSSITRSSEPVQHEESIRKPSPEPRAQMRRAASRDQLRDSSPPPAFKPEPPKAKTQNREESFDISRSHDYKSNPSAVAGNEVSGASTRSCPPPIAAKPSFGRSILKPSTPVPSPESEEVGEGSEEQEGAPKSVLGKVKIFEKMDHKARLQRMQELQEAQNARIEIAQKHPDIYAVPIKTHKPDPGLSQHTSSRPPEPQKGPSRLYQDPRGSYGSDAEEEEYRQQLSEHSKRGYYSQPSRYRDTEL
stoichiometry N [2]: 1.5

Binder: SCPRKTTSYPTPRPYPKPAPSSGKDYV (also: CoA-DY647 on YBBR-tag, labelled with PPTase Sfp, tag not in given chain) [C-terminal tail of claudin-1]
partitioning (client fluorescence inside/outside ZO1 droplets) [1]: 44 fold

Source: paper doi:10.1101/589580 (bioRxiv, 2019)
